This assay addresses human monomeric APP-tagged SIRPα V domain protein (human) (UniProt P78324). As to the kind of experiment: BiaCORE SPR; binder captured on Protein A, monovalent APP-tagged SIRPα V domain as analyte (Method 2.1). In general terms: SPR reads the build-up and loss of mass on a sensor chip optically.

“CD47-ECD IgG1 Fc fusion protein (from UniProt Q08722 19-141)” showed a Kd of 3000 nM.

The values are drawn from patent US20130011401A1.
